Data as given in paper PMC8999913.

Biological target: VAP-A (VAMP-associated protein A) (UniProt Q9P0L0)
Assay: anti-GFP co-IP after DSP crosslinking, VAP-A blot
Conditions: reference: WT, sorbitol-treated; sites S315

CERT (ceramide transport protein) (from UniProt Q9Y5P4) S315A, sorbitol-treated
binding against the reference: weaker
